Data published in PMC9705753.

Molecular target: Gal4 DNA-Binding Domain (DBD) linked to the LOV domain of WC-1 (N. crassa) (UniProt Q01371)
Assay: two-hybrid; Y2H-like optogenetic switch (FUN-LOV variants) in S. cerevisiae BY4741 or 59A-EC1118; genome-integrated luciferase reporter under P_GAL1 or P_5XGAL1; constant blue light or a single 2-h blue-light pulse (466 nm, 24 umol m^-2 s^-1) compared with constant darkness; 25°C, SC medium with 1 mM luciferin

Sequence of UniProt Q01371 (Q01371 381-508): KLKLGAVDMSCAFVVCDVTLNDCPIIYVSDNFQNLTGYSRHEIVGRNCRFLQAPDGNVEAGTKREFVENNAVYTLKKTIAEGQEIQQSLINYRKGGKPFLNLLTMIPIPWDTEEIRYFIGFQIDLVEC

Gal4-activation domain (AD) tethered to the LOV domain of VVD (from UniProt Q9C3Y6 1-186) (domain or fragment)
fold induction of luciferase expression (blue-light pulse / darkness), 59A-EC1118 strain, P 5XGAL1-Luc: 982 fold
